Test results: publication PMC9239255, “Switching off Bacterial Flagellar Biogenesis by YdiU-Mediated UMPylation of FlhDC”

Biological target: T1, FlhDC (native, un-UMPylated) (Escherichia coli K-12 MG1655, UniProt P0A8S9;P0ABY7 1-116;1-192)
T1 sequence 1: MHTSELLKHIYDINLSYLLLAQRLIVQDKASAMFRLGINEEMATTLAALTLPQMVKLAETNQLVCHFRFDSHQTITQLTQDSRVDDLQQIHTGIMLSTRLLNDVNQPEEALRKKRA
T1 sequence 2: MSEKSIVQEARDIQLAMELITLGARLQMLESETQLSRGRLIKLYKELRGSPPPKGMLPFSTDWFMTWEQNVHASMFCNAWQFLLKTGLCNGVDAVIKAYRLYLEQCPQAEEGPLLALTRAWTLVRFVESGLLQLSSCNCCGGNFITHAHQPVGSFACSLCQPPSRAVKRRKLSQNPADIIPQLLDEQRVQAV
Experiment: EMSA; 10 nM DNA; shift at protein:DNA ratio greater than 1
Settings: protein: recombinant; tags: none apparent (pET21b; reverse primer carries stop codon); chain copies: 4;2; label: 5'-FAM on strand 1 (Methods call both oligos FAM-flhB); blunt

B1: pflhB (flhB promoter) (dsDNA)
DNA 1: ATTAACGCCATAAACCCCGCCTTTTTTACCGCTTACTCTGCCTATTGGCGT
DNA 2: ACGCCAATAGGCAGAGTAAGCGGTAAAAAAGGCGGGGTTTATGGCGTTAAT
B1: binds.
